This data set has as its system Saccharomyces cerevisiae. Kind of data set: protein stability index of tFT-peptide fusion (C-terminal peptide) (PSI (0-1 scale)); higher = more stable (slower turnover). Particulars: temperature: 30 C. As to the method:
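MPS profiling in S. cerevisiae of the yeast C-terminome library: the last 12 aa of each annotated ORF are fused to the C-terminus of a sfGFP-mCherry timer, after a GGGS linker. Cells are FACS-sorted into 8 mCherry/sfGFP bins and deep-sequenced. PSI runs from 0 (unstable) to 1 (stable); wild type and das1Δ backgrounds, two technical replicates each.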

Setting [1] is: genetic background: das1 deletion.

This note sets out measurements from the supplement of paper PMC10724198.

± gives the standard deviation of the averaged measurements.

In the case of WSNNDDMEQNPW [YPR089W C-terminal 12 aa], the protein stability index is, setting by setting: under setting [1], 0.7236 ± 0.0055; (genetic background: wild type) 0.713 ± 0.029.

Take WTTEPYLQRIIW [DIE2 C-terminal 12 aa]: the protein stability index under setting [1] is 0.753 ± 0.0089 and the protein stability index (genetic background: wild type) was 0.718 ± 0.016.

On to WYEDEDSGDDDM [DML1 C-terminal 12 aa], for which the protein stability index was determined as 0.698 ± 0.012 under setting [1] and 0.674 ± 0.014 (genetic background: wild type).

Turning to YAPDVVRSLENL [RRP42 C-terminal 12 aa], the protein stability index by setting is: under setting [1], 0.7271 ± 0.0014; (genetic background: wild type) 0.695 ± 0.043.

Sequence YAVKDKIETLLI [SNU13 C-terminal 12 aa] showed a protein stability index under setting [1] of 0.7019 ± 0.0055 and a protein stability index (genetic background: wild type) of 0.725 ± 0.12.

As for YAYMLYYERVNK [UBP16 C-terminal 12 aa], the protein stability index is, setting by setting: under setting [1], 0.675 ± 0.02; (genetic background: wild type) 0.675 ± 0.041.

As to YDANSWKQIKSC [PCL5 C-terminal 12 aa], the protein stability index was 0.7002 ± 0.0065 under setting [1] and 0.203 ± 0.016 (genetic background: wild type).

For the sequence YDRDAKNDRSTT [YHL017W C-terminal 12 aa], the protein stability index by setting is: under setting [1], 0.705 ± 0.023; (genetic background: wild type) 0.665 ± 0.061.

On to YEEFALRSGSSS [AFG2 C-terminal 12 aa], for which the protein stability index reads like this: under setting [1], 0.715 ± 0.022; (genetic background: wild type) 0.676 ± 0.014.

For the sequence YEGPTLTEFEDA [CYB2 C-terminal 12 aa], the protein stability index by setting is: under setting [1], 0.6905 ± 0.0043; (genetic background: wild type) 0.703 ± 0.015.

Consider “YFFSSDRAIFNA [YGL041C-B C-terminal 12 aa]”, for which the protein stability index is, setting by setting: under setting [1], 0.731 ± 0.022; (genetic background: wild type) 0.7029 ± 0.0011.

With YFNKTEFLLADN [MRPL17 C-terminal 12 aa], the protein stability index worked out at 0.713 ± 0.018 under setting [1] and 0.677 ± 0.025 (genetic background: wild type).

For the sequence YIFQTYVSVDSK [YAR047C C-terminal 12 aa], the protein stability index is, setting by setting: under setting [1], 0.62 ± 0.036; (genetic background: wild type) 0.58 ± 0.015.

YILQKQIIEDVE [SFH5 C-terminal 12 aa]: the protein stability index runs as follows: under setting [1], 0.693 ± 0.0056; (genetic background: wild type) 0.65 ± 0.043.

In the case of YINDISRTWNAN [MNT3 C-terminal 12 aa], the protein stability index is 0.68 ± 0.0086 under setting [1] and 0.679 ± 0.043 (genetic background: wild type).

For YIWKYYADSLFE [CSM2 C-terminal 12 aa], the protein stability index runs as follows: under setting [1], 0.736 ± 0.013; (genetic background: wild type) 0.685 ± 0.043.

Take YKDVQDAIRDSL [URA6 C-terminal 12 aa]: the protein stability index was 0.708 ± 0.012 under setting [1] and 0.6855 ± 0.0037 (genetic background: wild type).

Regarding YKELVKNIESKL [CIT2 C-terminal 12 aa], the protein stability index was found to be 0.752 ± 0.024 under setting [1] and 0.837 ± 0.015 (genetic background: wild type).

Regarding YKERDLIDRSAY [VTS1 C-terminal 12 aa], the protein stability index reads like this: under setting [1], 0.681 ± 0.014; (genetic background: wild type) 0.706 ± 0.032.

Sequence YKKAATLISNIL [DNM1 C-terminal 12 aa] showed a protein stability index under setting [1] of 0.71 ± 0.017 and a protein stability index (genetic background: wild type) of 0.72 ± 0.074.

On to YKQREYYTGVAW [ERG28 C-terminal 12 aa], for which the protein stability index is, setting by setting: under setting [1], 0.70264 ± 0.0005; (genetic background: wild type) 0.694 ± 0.02.

Turning to YLAFRLREFNKL [RSC1 C-terminal 12 aa], the protein stability index under setting [1] is 0.787 ± 0.05 and the protein stability index (genetic background: wild type) stood at 0.726 ± 0.049.

As to YLKEYEFSQKDF [PFS1 C-terminal 12 aa], the protein stability index is, setting by setting: under setting [1], 0.725 ± 0.01; (genetic background: wild type) 0.734 ± 0.025.

YLRFKENPEEKW [AIM29 C-terminal 12 aa] had a protein stability index under setting [1] of 0.711 ± 0.011 and a protein stability index (genetic background: wild type) of 0.753 ± 0.086.

Consider YNSGTEGTRFQI [TAR1 C-terminal 12 aa], for which the protein stability index is, setting by setting: under setting [1], 0.707 ± 0.018; (genetic background: wild type) 0.6849 ± 0.0015.

YQVSIAKVPRLT [BUD5 C-terminal 12 aa]: the protein stability index under setting [1] turned out to be 0.711 ± 0.0095 and the protein stability index (genetic background: wild type) was 0.4878 ± 0.0037.

As for YRCEKISQVLVI [CTF13 C-terminal 12 aa], the protein stability index is, setting by setting: under setting [1], 0.461 ± 0.036; (genetic background: wild type) 0.495 ± 0.047.

With “YRNIPESKPQGS [YIR021W-A C-terminal 12 aa]”, the protein stability index worked out at 0.6812 ± 0.0038 under setting [1] and 0.6624 ± 0.0038 (genetic background: wild type).

Regarding YRVARKPSQPVM [MTO1 C-terminal 12 aa], the protein stability index under setting [1] was 0.685 ± 0.012 and the protein stability index (genetic background: wild type) was 0.683 ± 0.027.

In the case of YVASHESQKADE [RRP5 C-terminal 12 aa], the protein stability index is, setting by setting: under setting [1], 0.6883 ± 0.0054; (genetic background: wild type) 0.741 ± 0.072.

For YVKNLLTRFFTR [FRT1 C-terminal 12 aa], the protein stability index was 0.7184 ± 0.0033 under setting [1] and 0.732 ± 0.03 (genetic background: wild type).

On to YVVTSDEHPKTL [SIR2 C-terminal 12 aa], for which the protein stability index reads like this: under setting [1], 0.724 ± 0.0073; (genetic background: wild type) 0.6955 ± 0.0043.

Regarding YWILKSNPTNES [YNL092W C-terminal 12 aa], the protein stability index was found to be 0.742 ± 0.018 under setting [1] and 0.7246 ± 0.0071 (genetic background: wild type).

Sequence YWRKQYPEVDLP [UIP3 C-terminal 12 aa] showed a protein stability index under setting [1] of 0.728 ± 0.018 and a protein stability index (genetic background: wild type) of 0.744 ± 0.017.

In the case of YYYYNKYKEFYP [TMH11 C-terminal 12 aa], the protein stability index under setting [1] was 0.736 ± 0.039 and the protein stability index (genetic background: wild type) is 0.704 ± 0.029.
